Measured values from the supplement of paper PMC10724198.
± gives the standard deviation of the averaged measurements.

What follows are sequences tested on Saccharomyces cerevisiae (assay: protein stability index of tFT-peptide fusion (C-terminal peptide) (PSI (0-1 scale)); higher = more stable (slower turnover)). Settings: genetic background: wild type; temperature: 30 C.
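Further: PSI is a weighted mean of sequencing reads over stability bins, variants kept only with over 10 reads, mCherry proximal and sfGFP distal, peptide attached via GGGS linker.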

| Sequence | protein stability index |
| --- | --- |
| ELDFVVNKIQDW | 0.828 ± 0.096 |
| DPWGGTGKGHWG | 0.679 ± 0.0056 |
| PPSPPRPPTSFL | 0.608 ± 0.057 |
| SQRPPPLCDFTD | 0.723 ± 0.013 |
| DRLGGDWMERGG | 0.688 ± 0.032 |
| KDDEQESESKNN | 0.667 ± 0.011 |
| PFTHRTYREGRT | 0.676 ± 0.081 |
| NIKKKINNTVKN | 0.666 ± 0.0073 |
| SPGPPLPSLTLP | 0.738 ± 0.065 |
| GWAFDVAGQSAR | 0.683 ± 0.0097 |
| KKKKKKNKKKTQ | 0.734 ± 0.04 |
| RSYLLVWTSRLH | 0.637 ± 0.02 |
| CAVPAVIDLDKF | 0.65 ± 0.087 |
| PGTVQVGFDIQV | 0.717 ± 0.018 |
| GDWIYRMDRILI | 0.816 ± 0.035 |
| LPPPSPSPLFPP | 0.669 ± 0.052 |
| SSPIFPDPSHVS | 0.6058 ± 0.0054 |
| CCADPWRIARPW | 0.729 ± 0.042 |
| VDTTISVCCSVC | 0.68339 ± 0.00029 |
| CGYVSGGWAGNV | 0.691 ± 0.025 |
| LGPFTEAVSRHC | 0.67 ± 0.021 |
| VGAEGWAVAGDM | 0.77 ± 0.078 |
| FNFSSGLTGSWL | 0.763 ± 0.024 |
| PPPPTPPPHSPP | 0.656 ± 0.022 |
| SSPSFPSPLPPY | 0.701 ± 0.074 |
| IKSKFILKTRPM | 0.691 ± 0.091 |

| Sequence | protein stability index |
| --- | --- |
| SGTQSGAFSRGQ | 0.642 ± 0.081 |
| EGKWCGVKRGVY | 0.627 ± 0.033 |
| PFFRAPTRPSVF | 0.716 ± 0.043 |
| SKITENTKKKGK | 0.658 ± 0.019 |
| RREVFIPSTRVL | 0.698 ± 0.044 |
| WGPGGRLGVGHV | 0.676 ± 0.039 |
| PAPPPPLLPRSL | 0.727 ± 0.011 |
| KSLYLVDDRVGR | 0.764 ± 0.078 |
| NEVDSRGWTTLA | 0.59 ± 0.021 |
| PPLFSSTNKNPR | 0.664 ± 0.0076 |
| VLYCYPYLVLPP | 0.678 ± 0.013 |
| PPPPDLPYPLPL | 0.754 ± 0.025 |
| MYTNYLYDVAVE | 0.597 ± 0.044 |
| ESQKKEKTKPKN | 0.655 ± 0.023 |
| DFILVRGWADLR | 0.616 ± 0.059 |
| PLSPTSPLPSPA | 0.6779 ± 0.0039 |
| GNKKRDSDKIKE | 0.6054 ± 0.0028 |
| APAPPPSPPLPS | 0.68 ± 0.0081 |
| PSSPPPPSATPP | 0.701 ± 0.091 |
| GVMASLVRMSQG | 0.679 ± 0.11 |
| GWNGAGSGCVRA | 0.659 ± 0.068 |
| FFEVFDNYRSLV | 0.684 ± 0.051 |
| PPAPYPPFPLEL | 0.821 ± 0.078 |
| LFKKVGGRSLVW | 0.6813 ± 0.0036 |
| SRQPPPRVFCVV | 0.571 ± 0.035 |
| MGIKSCSSTCVT | 0.857 ± 0.2 |

| Sequence | protein stability index |
| --- | --- |
| FLGQPLSFSHVL | 0.692 ± 0.035 |
| FVRCLFSSGCFF | 0.728 ± 0.013 |
| GSLIVAARGVAG | 0.681 ± 0.024 |
| IHLSVYPLQPSC | 0.76 ± 0.04 |
| RAPSLLRPRSPP | 0.658 ± 0.12 |
| GEALVWGHGRLS | 0.741 ± 0.041 |
| WLVPSGTRTGRV | 0.678 ± 0.028 |
| RDGHGRHGRGER | 0.634 ± 0.024 |
| PRHVISQCFSRT | 0.6641 ± 0.005 |
| QPGRGIAFVCFD | 0.735 ± 0.051 |
| ITRKKLEISVDK | 0.685 ± 0.04 |
| DKVKILVGVAGW | 0.607 ± 0.036 |
| RRMAGEPKCGRS | 0.699 ± 0.015 |
| PSGDYVVLTTVS | 0.6901 ± 0.0038 |
| VVLLGAVGLVER | 0.679 ± 0.029 |
| RGVGCDMGGDGG | 0.65 ± 0.042 |
| PPSPPPPPSSPP | 0.707 ± 0.071 |
| AAPRPYRPCYPN | 0.664 ± 0.029 |
| SVLRWAVLGQTR | 0.728 ± 0.18 |
| SNFKKRKERFGR | 0.7048 ± 0.0063 |
| VIKESKKKTKKI | 0.544 ± 0.044 |
| MSVRGGEGVVGE | 0.614 ± 0.025 |
| PTRTAYHRQIPT | 0.773 ± 0.043 |
| WGCAGVGGVGGG | 0.6853 ± 0.0065 |
| PSPLPGYFFTLS | 0.627 ± 0.12 |
| LRVVCVVGQRSL | 0.554 ± 0.0094 |

| Sequence | protein stability index |
| --- | --- |
| PARLLIEFPSYS | 0.684 ± 0.021 |
| LSVGLVPFRWRV | 0.6584 ± 0.0017 |
| GRVRAKTETSNS | 0.669 ± 0.028 |
| GESWGGVGDVRR | 0.762 ± 0.028 |
| GARGCSATGPPG | 0.61 ± 0.02 |
| KKTKNKKKQNGK | 0.6863 ± 0.0012 |
| KRETKSKGQAQA | 0.602 ± 0.042 |
| EWCQVGGRGFLG | 0.74 ± 0.021 |
| EKESERGREKDS | 0.747 ± 0.12 |
| GNQAILGRYLSV | 0.623 ± 0.051 |
| RRRLLLWEELVE | 0.7706 ± 0.004 |
| GLSEPWVFFLRC | 0.64 ± 0.012 |
| SLPPPLPPPAPP | 0.614 ± 0.04 |
| SSFSAPPMPRSF | 0.653 ± 0.028 |
| FVLATGVLLQQG | 0.623 ± 0.024 |
| TRIGNGHPLGCG | 0.718 ± 0.024 |
| VSGGRQVGGGGW | 0.72 ± 0.088 |
| GTDWRDKADLRG | 0.7071 ± 0.0046 |
| QVLIKKRNIKKK | 0.651 ± 0.076 |
| LRGFGLGLRFFF | 0.65 ± 0.013 |
| RRIGKTFLSLNI | 0.709 ± 0.073 |
| VECVPFAPPRPH | 0.68 ± 0.14 |
| FGVRPVSVPLCG | 0.592 ± 0.047 |
| GWALGRGRRVSG | 0.691 ± 0.033 |
| NGRTSRVMKDRK | 0.6793 ± 0.0035 |
| DRSRWMVVRGGG | 0.648 ± 0.13 |

| Sequence | protein stability index |
| --- | --- |
| FPLYKQKSGITY | 0.651 ± 0.0081 |
| AFDRVPLVFVST | 0.564 ± 0.011 |
| DSNTAGLTRDIA | 0.645 ± 0.015 |
| TMCRGGVSSQDL | 0.662 ± 0.057 |
| VGLRPPRPAPPS | 0.623 ± 0.035 |
| PPPSCPLSPPRL | 0.668 ± 0.0046 |
| AKRRTNRLHCNA | 0.6427 ± 0.0029 |
| PLFPPASVVVLY | 0.663 ± 0.036 |
| SLLSLSPACLPL | 0.683 ± 0.026 |
| INEEIVDMKRLL | 0.697 ± 0.0095 |
| VGAAVFGARWGA | 0.689 ± 0.037 |
| SGLLGVSIHGLR | 0.654 ± 0.053 |
| VQQSRTQKDQHV | 0.623 ± 0.054 |
| RIFSPVFLSMSV | 0.649 ± 0.018 |
| GWLAERGPLEGG | 0.728 ± 0.016 |
| PHAEESNSTLSP | 0.765 ± 0.12 |
| SRAGAVLSGIES | 0.669 ± 0.013 |
| PTLRAPLRYGYL | 0.675 ± 0.022 |
| PHYPQSHPADPV | 0.668 ± 0.016 |
| PPNPLHPPPSRP | 0.653 ± 0.044 |
| PPPPFPPPPPHS | 0.719 ± 0.039 |
| PSPRSPVPLTPS | 0.708 ± 0.015 |
| LQPLPPYHSIQL | 0.703 ± 0.012 |
| CFPSSVPFPSLL | 0.778 ± 0.058 |
| PPPLAPPTSLRF | 0.715 ± 0.075 |
| GSSTINRVDLKR | 0.662 ± 0.015 |

| Sequence | protein stability index |
| --- | --- |
| TTVLRTFGDKQF | 0.715 ± 0.00088 |
| VVVVSGFKGSCL | 0.637 ± 0.065 |
| CWCRVGSSGCVR | 0.668 ± 0.039 |
| SCYRSCGALLSA | 0.694 ± 0.011 |
| KKEQKSKTEMRK | 0.7124 ± 0.0037 |
| GSSHLRFRGMEG | 0.614 ± 0.02 |
| LCLRRLSCVGFG | 0.568 ± 0.022 |
| VPTELGGTLIPT | 0.664 ± 0.11 |
| GTVDGILLVFVE | 0.593 ± 0.026 |
| SLPPPSPLPPPV | 0.558 ± 0.018 |
| YHSSHTGEFLFL | 0.658 ± 0.053 |
| LPSPPPPRSLLP | 0.6657 ± 0.0016 |
| PDRSLASPPTTR | 0.711 ± 0.069 |
| CPPRIAFPCGIQ | 0.649 ± 0.094 |
| AIVRFAPWPVPR | 0.701 ± 0.043 |
| IPPLPSSIPRSF | 0.673 ± 0.022 |
| WARGVAASGRFV | 0.6916 ± 0.0025 |
| SFSPEQITCNPY | 0.598 ± 0.037 |
| VGAWRGVLVGGG | 0.612 ± 0.0068 |
| REKERKRGKAVK | 0.698 ± 0.019 |
| GNVAMRKNIIGL | 0.674 ± 0.057 |
| LQRPDHPTPTPP | 0.712 ± 0.017 |
| WESGRNNWYMNK | 0.798 ± 0.13 |
| PPPRPAPPSSHS | 0.641 ± 0.044 |
| RRERQRRARTEI | 0.6876 ± 0.0036 |
| YSVDGTGVGLWV | 0.717 ± 0.016 |

| Sequence | protein stability index |
| --- | --- |
| SSGNSVDCFGHQ | 0.6959 ± 0.0057 |
| IDVIIESVFSLF | 0.619 ± 0.09 |
| PPPPPSPDSNLF | 0.733 ± 0.067 |
| GMSFALSVYFFP | 0.601 ± 0.01 |
| DASCAPAQYLPI | 0.673 ± 0.025 |
| LLRSCLTLFARR | 0.668 ± 0.021 |
| PRHPRLPAPPAP | 0.666 ± 0.034 |
| PPTSLRFRPPYC | 0.682 ± 0.046 |
| RSFAGTTRIRLG | 0.739 ± 0.043 |
| GWRGGGSRELKW | 0.743 ± 0.031 |
| TWCSFHFYSFWC | 0.578 ± 0.01 |
| CLSDPDVVRVLS | 0.6914 ± 0.0018 |
| CCILTHFSSCET | 0.679 ± 0.011 |
| RAIPRPLPPRRI | 0.7164 ± 0.0029 |
| PLRAPPHPPPVP | 0.623 ± 0.048 |
| CACIPLHFAPSL | 0.683 ± 0.04 |
| GGVKVRGGMGPE | 0.684 ± 0.019 |
| GAGVSELCGAGW | 0.713 ± 0.11 |
| NRLRNAGEPTND | 0.782 ± 0.069 |
| DTHESELNQLNG | 0.6902 ± 0.0032 |
| DCMSSVFQSPPG | 0.693 ± 0.01 |
| PPKPAQPPTPSP | 0.693 ± 0.075 |
| RLSPGSPSPFPC | 0.691 ± 0.029 |
| FLSFFVLGVPGG | 0.707 ± 0.039 |
| ICCGLCRDCSCL | 0.732 ± 0.069 |
| ANSRVVSFRLSG | 0.693 ± 0.047 |

| Sequence | protein stability index |
| --- | --- |
| LCVGAGCAFEEG | 0.675 ± 0.025 |
| RYGHSRLCLGFR | 0.657 ± 0.12 |
| RDLGGECARQVG | 0.7 ± 0.04 |
| RSEPRQILHRQT | 0.702 ± 0.025 |
| PPRVSLLSPPPP | 0.693 ± 0.034 |
| LSRPPASPPHPP | 0.71468 ± 0.00055 |
| ICSVGGFWLSCV | 0.596 ± 0.032 |
| PWTAGQGWATIP | 0.688 ± 0.04 |
| KVVGRLGVERVR | 0.753 ± 0.0052 |
| LRCLLAHIAGRG | 0.67065 ± 0.00044 |
| GGGGGGWSGACL | 0.716 ± 0.08 |
| QVGSLEIFLCFI | 0.6323 ± 0.0016 |
| SVPGLELGLPLR | 0.675 ± 0.061 |
| CTLSQGLSGSRI | 0.6609 ± 0.0024 |
| TASFVSSGLLAF | 0.586 ± 0.012 |
| VFCPGWRKCNDP | 0.661 ± 0.043 |
| IIVWGGAGLWGV | 0.59 ± 0.0027 |
| VSVILAGLFWIT | 0.473 ± 0.038 |
| PFSSVFNPGVLS | 0.644 ± 0.017 |
| VEAGDYAWDEAA | 0.657 ± 0.056 |
